B1: MYT11740 (antibody, V domains shown)
VH: QVQLQESGPGLVKPSETLSLTCTVSGGSISSYGVHWIRQPPGKGLEWIGVIWTSGVTDYNSALMGRVTISVDTSKNQFSLKLSSVTAADTAVYYCARDGDYDRYHMDYWGQGTLVTVSS
VL: DIVMTQSPDSLAVSLGERATINCRASKSVSTSGYSYMHWYQQKPGQPPKLLIYLASNLESGVPDRFSGSGSGTDFTLTISSLQAEDVAVYYCQHSRELPYTFGQGTKLEIK
notes: screened as IgG in Expi293 supernatant
B2: MYT11745 (antibody, V domains shown)
VH: QVQLQESGPGLVKPSETLSLTCTVSGGSISSYGVHWIRQPPGKGLEWIGVIWTSGVTDYNSALMGRVTISVDTSKNQFSLKLSSVTAADTAVYYCARDGDYDRYTMDYWGQGTLVTVSS
VL: DIVMTQSPDSLAVSLGERATINCRHSKSVSTSGYSYMHWYQQKPGQPPKLLIYLASNLESGVPDRFSGSGSGTDFTLTISSLQAEDVAVYYCQHSRELPYTFGQGTKLEIK
notes: hu7E6SVG variant, His at LCV position 25 (L1 02); screened as IgG in Expi293 supernatant
B3: MYT11749 (antibody, V domains shown)
VH: QVQLQESGPGLVKPSETLSLTCTVSGGSISSYGVHWIRQPPGKGLEWIGVIWTSGVTDYNSALMGRVTISVDTSKNQFSLKLSSVTAADTAVYYCARDGDYDRYTMDYWGQGTLVTVSS
VL: DIVMTQSPDSLAVSLGERATINCRASKSHSTSGYSYMHWYQQKPGQPPKLLIYLASNLESGVPDRFSGSGSGTDFTLTISSLQAEDVAVYYCQHSRELPYTFGQGTKLEIK
notes: hu7E6SVG variant, His at LCV position 29 (L1 06); screened as IgG in Expi293 supernatant
B4: MYT11743 (antibody, V domains shown)
VH: QVQLQESGPGLVKPSETLSLTCTVSGGSISSYGVHWIRQPPGKGLEWIGVIWTSGVTDYNSALMGRVTISVDTSKNQFSLKLSSVTAADTAVYYCARDGDYDRYTMDHWGQGTLVTVSS
VL: DIVMTQSPDSLAVSLGERATINCRASKSVSTSGYSYMHWYQQKPGQPPKLLIYLASNLESGVPDRFSGSGSGTDFTLTISSLQAEDVAVYYCQHSRELPYTFGQGTKLEIK
notes: as for B1
B5: MYT11751 (antibody, V domains shown)
VH: QVQLQESGPGLVKPSETLSLTCTVSGGSISSYGVHWIRQPPGKGLEWIGVIWTSGVTDYNSALMGRVTISVDTSKNQFSLKLSSVTAADTAVYYCARDGDYDRYTMDYWGQGTLVTVSS
VL: DIVMTQSPDSLAVSLGERATINCRASKSVSHSGYSYMHWYQQKPGQPPKLLIYLASNLESGVPDRFSGSGSGTDFTLTISSLQAEDVAVYYCQHSRELPYTFGQGTKLEIK
notes: hu7E6SVG variant, His at LCV position 31 (L1 08); screened as IgG in Expi293 supernatant
B6: MYT11750 (antibody, V domains shown)
VH: QVQLQESGPGLVKPSETLSLTCTVSGGSISSYGVHWIRQPPGKGLEWIGVIWTSGVTDYNSALMGRVTISVDTSKNQFSLKLSSVTAADTAVYYCARDGDYDRYTMDYWGQGTLVTVSS
VL: DIVMTQSPDSLAVSLGERATINCRASKSVHTSGYSYMHWYQQKPGQPPKLLIYLASNLESGVPDRFSGSGSGTDFTLTISSLQAEDVAVYYCQHSRELPYTFGQGTKLEIK
notes: hu7E6SVG variant, His at LCV position 30 (L1 07); screened as IgG in Expi293 supernatant
B7: MYT11752 (antibody, V domains shown)
VH: QVQLQESGPGLVKPSETLSLTCTVSGGSISSYGVHWIRQPPGKGLEWIGVIWTSGVTDYNSALMGRVTISVDTSKNQFSLKLSSVTAADTAVYYCARDGDYDRYTMDYWGQGTLVTVSS
VL: DIVMTQSPDSLAVSLGERATINCRASKSVSTHGYSYMHWYQQKPGQPPKLLIYLASNLESGVPDRFSGSGSGTDFTLTISSLQAEDVAVYYCQHSRELPYTFGQGTKLEIK
notes: hu7E6SVG variant, His at LCV position 32 (L1 09); screened as IgG in Expi293 supernatant
B8: MYT11754 (antibody, V domains shown)
VH: QVQLQESGPGLVKPSETLSLTCTVSGGSISSYGVHWIRQPPGKGLEWIGVIWTSGVTDYNSALMGRVTISVDTSKNQFSLKLSSVTAADTAVYYCARDGDYDRYTMDYWGQGTLVTVSS
VL: DIVMTQSPDSLAVSLGERATINCRASKSVSTSGHSYMHWYQQKPGQPPKLLIYLASNLESGVPDRFSGSGSGTDFTLTISSLQAEDVAVYYCQHSRELPYTFGQGTKLEIK
notes: hu7E6SVG variant, His at LCV position 34 (L1 11); screened as IgG in Expi293 supernatant
B9: MYT11748 (antibody, V domains shown)
VH: QVQLQESGPGLVKPSETLSLTCTVSGGSISSYGVHWIRQPPGKGLEWIGVIWTSGVTDYNSALMGRVTISVDTSKNQFSLKLSSVTAADTAVYYCARDGDYDRYTMDYWGQGTLVTVSS
VL: DIVMTQSPDSLAVSLGERATINCRASKHVSTSGYSYMHWYQQKPGQPPKLLIYLASNLESGVPDRFSGSGSGTDFTLTISSLQAEDVAVYYCQHSRELPYTFGQGTKLEIK
notes: hu7E6SVG variant, His at LCV position 28 (L1 05); screened as IgG in Expi293 supernatant
B10: MYT11753 (antibody, V domains shown)
VH: QVQLQESGPGLVKPSETLSLTCTVSGGSISSYGVHWIRQPPGKGLEWIGVIWTSGVTDYNSALMGRVTISVDTSKNQFSLKLSSVTAADTAVYYCARDGDYDRYTMDYWGQGTLVTVSS
VL: DIVMTQSPDSLAVSLGERATINCRASKSVSTSHYSYMHWYQQKPGQPPKLLIYLASNLESGVPDRFSGSGSGTDFTLTISSLQAEDVAVYYCQHSRELPYTFGQGTKLEIK
notes: hu7E6SVG variant, His at LCV position 33 (L1 10); screened as IgG in Expi293 supernatant
B11: MYT11742 (antibody, V domains shown)
VH: QVQLQESGPGLVKPSETLSLTCTVSGGSISSYGVHWIRQPPGKGLEWIGVIWTSGVTDYNSALMGRVTISVDTSKNQFSLKLSSVTAADTAVYYCARDGDYDRYTMHYWGQGTLVTVSS
VL: DIVMTQSPDSLAVSLGERATINCRASKSVSTSGYSYMHWYQQKPGQPPKLLIYLASNLESGVPDRFSGSGSGTDFTLTISSLQAEDVAVYYCQHSRELPYTFGQGTKLEIK
notes: as for B1
B12: MYT11747 (antibody, V domains shown)
VH: QVQLQESGPGLVKPSETLSLTCTVSGGSISSYGVHWIRQPPGKGLEWIGVIWTSGVTDYNSALMGRVTISVDTSKNQFSLKLSSVTAADTAVYYCARDGDYDRYTMDYWGQGTLVTVSS
VL: DIVMTQSPDSLAVSLGERATINCRASHSVSTSGYSYMHWYQQKPGQPPKLLIYLASNLESGVPDRFSGSGSGTDFTLTISSLQAEDVAVYYCQHSRELPYTFGQGTKLEIK
notes: hu7E6SVG variant, His at LCV position 27 (L1 04); screened as IgG in Expi293 supernatant
B13: MYT11744 (antibody, V domains shown)
VH: QVQLQESGPGLVKPSETLSLTCTVSGGSISSYGVHWIRQPPGKGLEWIGVIWTSGVTDYNSALMGRVTISVDTSKNQFSLKLSSVTAADTAVYYCARDGDYDRYTMDYWGQGTLVTVSS
VL: DIVMTQSPDSLAVSLGERATINCHASKSVSTSGYSYMHWYQQKPGQPPKLLIYLASNLESGVPDRFSGSGSGTDFTLTISSLQAEDVAVYYCQHSRELPYTFGQGTKLEIK
notes: hu7E6SVG variant, His at LCV position 24 (L1 01); screened as IgG in Expi293 supernatant
B14: MYT11755 (antibody, V domains shown)
VH: QVQLQESGPGLVKPSETLSLTCTVSGGSISSYGVHWIRQPPGKGLEWIGVIWTSGVTDYNSALMGRVTISVDTSKNQFSLKLSSVTAADTAVYYCARDGDYDRYTMDYWGQGTLVTVSS
VL: DIVMTQSPDSLAVSLGERATINCRASKSVSTSGYHYMHWYQQKPGQPPKLLIYLASNLESGVPDRFSGSGSGTDFTLTISSLQAEDVAVYYCQHSRELPYTFGQGTKLEIK
notes: hu7E6SVG variant, His at LCV position 35 (L1 12); screened as IgG in Expi293 supernatant
B15: MYT11746 (antibody, V domains shown)
VH: QVQLQESGPGLVKPSETLSLTCTVSGGSISSYGVHWIRQPPGKGLEWIGVIWTSGVTDYNSALMGRVTISVDTSKNQFSLKLSSVTAADTAVYYCARDGDYDRYTMDYWGQGTLVTVSS
VL: DIVMTQSPDSLAVSLGERATINCRAHKSVSTSGYSYMHWYQQKPGQPPKLLIYLASNLESGVPDRFSGSGSGTDFTLTISSLQAEDVAVYYCQHSRELPYTFGQGTKLEIK
notes: hu7E6SVG variant, His at LCV position 26 (L1 03); screened as IgG in Expi293 supernatant

In the assay the target is T1, Human TROP2 Protein, His Tag (Acro Biosystems) (human, UniProt P09758 27-274).
T1 construct: Bought antigen used at 50 nM in the Octet screen; also called TACSTD2; not shown: His tag
T1 sequence (looked up): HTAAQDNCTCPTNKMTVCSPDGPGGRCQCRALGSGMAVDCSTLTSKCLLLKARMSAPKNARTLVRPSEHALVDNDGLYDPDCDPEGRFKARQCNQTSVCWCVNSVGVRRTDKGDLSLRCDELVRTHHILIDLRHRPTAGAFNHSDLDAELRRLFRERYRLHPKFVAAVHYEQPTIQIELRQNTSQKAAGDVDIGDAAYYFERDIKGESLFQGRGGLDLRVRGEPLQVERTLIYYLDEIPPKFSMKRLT
Description: BLI (Octet) [1/2]. How it is done:
After allowing for four days of protein expression, cell culture supernatants were collected, quantified by SDS-PAGE analysis (DNS), and the pH dependence of the variant was evaluated using biolayer interferometry (BLI) on an Octet RED 96e instrument. Briefly, cell culture supernatants were diluted based on qualitative expression level of the variant determined by visual examination of SDS-PAGE gels, 5 μL of cell culture supernatant was diluted into 195 μL of 1×PBST, pH 7.4 for high expressors, 25 μL of cell culture supernatant was diluted into 175 μL of 1×PBST, pH 7.4 for medium expressors and 100 μL of cell culture supernatant was diluted into 100 μL of 1×PBST, pH 7.4 for low expressors for loading onto the sensor tips. The resulting diluted supernatants were then captured on an anti-human Fc sensor (Forte Bio). A baseline was established using 1×PBST (50 mM Potassium Phosphate Buffer+150 mM NaCl+0.05% Tween 20) pH 7.4, and the sensor was associated with 50 nM of TROP2 (Human TROP2 Protein, His Tag, Acro Biosystems) in 1×PBST pH 7.4 for 120 sec to generate an association curve. In the dissociation phase, the antibody-antigen complex on the sensor was exposed to 1×PBST pH 7.4 or pH 5.4, for 300 sec. Association and dissociation phase curves were examined for the starting ABPC antibody (with no substitutions) and each corresponding antibody variant at pH 5.4 and pH 7.4 to inform on two criteria: a) enhanced dissociation (i.e., higher koff values) at pH 5.4 due to histidine or alanine substitution compared to the starting ABPC, (with no substitutions), and b) reduced dissociation at pH 7.4 (i.e., lower koff values) compared to pH 5.4 in the antibody variant itself and with the starting ABPC (with no substitutions). […] It was also noted that while some mutations obliterated TROP2 binding, others were tolerated with little or n change in TROP2 binding kinetics.
For orientation: BLI is a label-free optical method that tracks binding on a fibre tip over time.
For B1, the binding result is recorded as “no binding (tested: 50 nM)”.

B2: the binding result was “binds”.

Take B3: the binding result is recorded as “no binding (tested: 50 nM)”.

As to B4, the binding result is listed as “binds”.

For B5, the binding result is reported as “no binding (tested: 50 nM)”.

B6: the binding result was “binds”.

B7: the binding result is reported as “binds”.

Consider B8, for which the binding result is listed as “binds”.

For the molecule B9, the binding result is given as “binds”.

For B10, the binding result was “binds”.

Consider B11, for which the binding result is reported as “binds”.

In the case of B12, the binding result is “binds”.

Regarding B13, the binding result was “binds”.

On to B14, for which the binding result was “binds”.

Regarding B15, the binding result is on record as “binds”.

The record behind these values is patent publication US20260274985A1 (MYTHIC THERAPEUTICS, published 2026).
